The results in this text go back to article PMC6739812 (Protein Science : A Publication of the Protein Society, 2019).

For orientation: stoichiometry N means the number of molecules, sites or subunits per partner or assembly.

This data set concerns the molecule itself. The experiment in a line: SEC-MALS. (In gel filtration, larger molecules generally elute earlier.)

B1: InvCΔ79 (Salmonella T3SS ATPase InvC lacking the first 79 residues, with C-terminal Strep-tag) (domain or fragment, Salmonella typhimurium, UniProt P0A1B9 80-431, looked up)
chain: GRALSAWVGYSVLGAVLDPTGKIVERFTPEVAPISEERVIDVAPPSYASRVGVREPLITGVRAIDGLLTCGVGQRMGIFASAGCGKTMLMHMLIEQTEADVFVIGLIGERGREVTEFVDMLRASHKKEKCVLVFATSDFPSVDRCNAAQLATTVAEYFRDQGKRVVLFIDSMTRYARALRDVALASGERPARRGYPASVFDNLPRLLERPGATSEGSITAFYTVLLESEEEADPMADEIRSILDGHLYLSRKLAGQGHYPAIDVLKSVSRVFGQVTTPTHAEQASAVRKLMTRLEELQLFIDLGEYRPGENIDNDRAMQMRDSLKAWLCQPVAQYSSFDDTLSGMNAFADQN
With B1, the “stoichiometry N” value amounted to 2.
